Assay results: US20240010722A1 (published 2024)

T1: human MAdCAM (human, UniProt Q13477 19-317, limits assumed)
T1 construct: also called huMAdCAM; human MAdCAM-1
T1 sequence (looked up): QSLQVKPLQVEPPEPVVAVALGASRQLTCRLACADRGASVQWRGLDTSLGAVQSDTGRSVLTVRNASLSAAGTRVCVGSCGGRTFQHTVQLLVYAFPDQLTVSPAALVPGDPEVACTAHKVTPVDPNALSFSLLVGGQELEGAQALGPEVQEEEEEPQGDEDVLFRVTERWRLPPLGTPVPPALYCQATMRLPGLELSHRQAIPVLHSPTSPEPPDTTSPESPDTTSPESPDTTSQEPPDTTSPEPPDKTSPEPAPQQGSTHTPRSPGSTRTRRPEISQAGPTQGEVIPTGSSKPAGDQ

T2: mouse MAdCAM (mouse, UniProt Q61826 22-365, limits assumed)
T2 construct: also called mouse MAdCAM-1; muMAdCAM
T2 sequence (looked up): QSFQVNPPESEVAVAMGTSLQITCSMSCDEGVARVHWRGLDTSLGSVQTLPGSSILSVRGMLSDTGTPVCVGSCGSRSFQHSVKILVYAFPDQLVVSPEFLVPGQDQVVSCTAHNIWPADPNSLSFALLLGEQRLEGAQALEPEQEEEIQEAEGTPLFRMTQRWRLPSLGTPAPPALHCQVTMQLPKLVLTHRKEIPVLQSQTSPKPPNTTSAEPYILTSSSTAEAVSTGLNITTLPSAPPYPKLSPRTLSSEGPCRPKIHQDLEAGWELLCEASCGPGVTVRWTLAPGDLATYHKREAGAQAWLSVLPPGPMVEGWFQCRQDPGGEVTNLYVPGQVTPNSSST


Assays:
[1] = biological target: T3, cyno MAdCAM (cynomolgus); test: BLI (Octet), binder on anti-human Fc tips
T3 construct: also called cynomolgus MAdCAM

[2] = biological target: T1, human MAdCAM; test: BLI (Octet), binder on anti-human Fc tips
[3] = biological target: T2, mouse MAdCAM; test: BLI (Octet), binder on anti-human Fc tips
[4] = biological target: Insulin; test: polyreactivity ELISA on insulin coat, 100 nM
Sequence of Insulin (P01308 25-54, chain 1 of 2): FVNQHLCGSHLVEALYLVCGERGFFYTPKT
Sequence of Insulin (P01308 90-110, chain 2 of 2): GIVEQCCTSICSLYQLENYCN
Description: Non-specific DNA and Insulin binding is predictive of poor pharmacokinetics (PK). An immunosorbent plate was coated with dsDNA at a concentration of 1 μg/mL or Insulin at 5 μg/mL in PBS pH 7.4, 75 ul/well, and incubated overnight at 4° C. Wells were washed with PBS pH 7.4 containing 0.05% Tween-20 (wash buffer) three times, and then blocked with 200 ul/well 1% BSA in PBS pH 7.4 (block buffer) for two hours at room temperature. After three washes with wash buffer, TAs and controls Lenzilumab and Elotuzumab were diluted to 100 nM in PBS containing 1% BSA and 0.05% Tween-20 (assay buffer). The diluted material was added to the DNA/insulin coated plate at 75 ul/well for 1 hour at room temperature. After three washes with wash buffer, a donkey anti-human FcY HRP conjugated polyclonal antibody, diluted to 1:5000 in assay buffer, was added to the plate at 75 ul/well for 1 hr at room temperature. After three washes with wash buffer and three washes with wash buffer (with no tween-20), the assay was developed with TMB, and stopped with 1N HCL. OD 450 nm was measured. The experiment included appropriate controls for non-specific binding of test articles to the plate/block in the absence of DNA or insulin.

Row | Kd [1] [nM] | Kd [2] [nM] | Kd [3] [nM] | Insulin polyreactivity score [4] | koff [2] [s⁻¹] | kon [2] [M⁻¹ s⁻¹] | binding result [2] | Binder
1 | 68.5 | 48.2 | 130 | – | – | – | – | MIAB122 (antibody, V domains shown, tested with human Fc) VH: EVQLLESGGGLVQPGGSLRLSCAASGFIFDDYAMHWVRQAPGKGLEWVASITSSSAFIDYADSVKGRFTISRDNSKNTLYLQMNSLRAEDTAVYYCARERVDWFSYFDLWGQGTLVTVSS VL: EIVMTQSPATLSVSPGERATLSCRACPSVSNNYLVWYQQKPGQAPRLLIYDASTRATGIPARFSGSGSGTEFTLTISSLQSEDFAVYYCQQYSHWPPTFGQGTKVEIK
2 | 142 | 20.2 | 75.1 | – | – | – | – | MIAB208 (antibody, V domains shown, tested with human Fc) VH: EVQLLESGGGLVQPGGSLRLSCAASGFTFDDYAMHWVRQAPGKGLEWVASITSSSAFIDYADSVKGRFTISRDNSKNTLYLQMNSLRAEDTAVYYCARERVDWNSYFDLWGQGTLVTVSS VL: EIVMTQSPATLSVSPGERATLSCRASQSVYSNLAWYQQKPGQAPRLLIYDASTRATGIPARFSGSGSGTEFTLTISSLQSEDFAVYYCQQYHIWPPTFGQGTKVEIK
3 | 60.8 | 46.9 | 131 | – | – | – | – | MIAB25 (antibody, V domains shown, tested with human Fc) VH: EVQLLESGGGLVQPGGSLRLSCAASGFIFDDYAMHWVRQAPGKGLEWVASITSSSAFIDYADSVKGRFTISRDNSKNTLYLQMNSLRAEDTAVYYCARERVDWFSYFDLWGQGTLVTVSS VL: EIVMTQSPATLSVSPGERATLSCRASQSVSNNLVWYQQKPGQAPRLLIYDASTRATGIPARFSGSGSGTEFTLTISSLQSEDFAVYYCQQYSHWPPTFGQGTKVEIK
4 | 89.5 | 74.3 | 7.6 | – | – | – | – | MIAB206 (antibody, V domains shown, tested with human Fc) VH: EVQLLESGGGLVQPGGSLRLSCAASGFTFDDYAMHWVRQAPGKGLEWVASITSSSAFIDYADSVKGRFTISRDNSKNTLYLQMNSLRAEDTAVYYCARERVDWYSYFDLWGQGTLVTVSS VL: EIVMTQSPATLSVSPGERATLSCRASQSVYSNLAWYQQKPGQAPRLLIYRASTRATGIPARFSGSGSGTEFTLTISSLQSEDFAVYYCQQYHIWPPTFGQGTKVEIK
5 | 99 | 61.1 | 35.2 | – | – | – | – | MIAB209 (antibody, V domains shown, tested with human Fc) VH: EVQLLESGGGLVQPGGSLRLSCAASGFTFDDYAMHWVRQAPGKGLEWVASITSSSAFIDYADSVKGRFTISRDNSKNTLYLQMNSLRAEDTAVYYCARERVDWNSYFDLWGQGTLVTVSS VL: EIVMTQSPATLSVSPGERATLSCRASQSVYSNYLAWYQQKPGQAPRLLIYRASTRATGIPARFSGSGSGTEFTLTISSLQSEDFAVYYCQQYSHWPPTFGQGTKVEIK
6 | 77.9 | 39.7 | 164 | – | – | – | – | MIAB123 (antibody, V domains shown, tested with human Fc) VH: EVQLLESGGGLVQPGGSLRLSCAASGFIFDDYAMHWVRQAPGKGLEWVASITSSSAFIDYADSVKGRFTISRDNSKNTLYLQMNSLRAEDTAVYYCARERVDWFSYFDLWGQGTLVTVSS VL: EIVMTQSPATLSVSPGERATLSCRASQSVSNNYLVWYQQKPGQAPRLLIYDASTRATGIPARFSGSGSGTEFTLTISSLQSEDFAVYYCQQYSHWPPTFGQGTKVEIK
7 | 117 | 56.3 | 42.2 | – | – | – | – | MIAB205 (antibody, V domains shown, tested with human Fc) VH: EVQLLESGGGLVQPGGSLRLSCAASGFTFDDYAMHWVRQAPGKGLEWVASITSSSAFIDYADSVKGRFTISRDNSKNTLYLQMNSLRAEDTAVYYCARERVDWFSYFDLWGQGTLVTVSS VL: EIVMTQSPATLSVSPGERATLSCRASQSVYSNLAWYQQKPGQAPRLLIYRASTRATGIPARFSGSGSGTEFTLTISSLQSEDFAVYYCQQYHIWPPTFGQGTKVEIK
8 | 33.4 | 45.9 | 6.6 | – | – | – | – | MIAB13 (antibody, V domains shown, tested with human Fc) VH: EVQLLESGGGLVQPGGSLRLSCAASGFTFDDYAMHWVRQAPGKGLEWVASITSSSAFIDYADSVKGRFTISRDNSKNTLYLQMNSLRAEDTAVYYCARERVLWNSYFDLWGQGTLVTVSS VL: EIVMTQSPATLSVSPGERATLSCRASQNVNNNLAWYQQKPGQAPRLLIYDATTRATGIPARFSGSGSGTEFTLTISSLQSEDFAVYYCQQYYHWPQTFGQGTKVEIK
9 | 73.7 | 83.5 | 24 | – | – | – | – | MIAB207 (antibody, V domains shown, tested with human Fc) VH: EVQLLESGGGLVQPGGSLRLSCAASGFTFDDYAMHWVRQAPGKGLEWVASITSSSAFIDYADSVKGRFTISRDNSKNTLYLQMNSLRAEDTAVYYCARERVDWNSYFDLWGQGTLVTVSS VL: EIVMTQSPATLSVSPGERATLSCRASQSVYSNLVWYQQKPGQAPRLLIYRASTRATGIPARFSGSGSGTEFTLTISSLQSEDFAVYYCQQYHIWPPTFGQGTKVEIK
10 | 78.5 | 49.1 | 9.9 | – | – | – | – | MIAB26 (antibody, V domains shown, tested with human Fc) VH: EVQLLESGGGLVQPGGSLRLSCAASGFTFDDYAMHWVRQAPGKGLEWVASITSSSAFIDYADSVKGRFTISRDNSKNTLYLQMNSLRAEDTAVYYCARERVDWNSYFDLWGQGTLVTVSS VL: EIVMTQSPATLSVSPGERATLSCRASQSVYSNLAWYQQKPGQAPRLLIYRASTRATGIPARFSGSGSGTEFTLTISSLQSEDFAVYYCQQYHIWPPTFGQGTKVEIK
11 | 92 | 50.4 | 117 | – | – | – | – | MIAB121 (antibody, V domains shown, tested with human Fc) VH: EVQLLESGGGLVQPGGSLRLSCAASGFIFDDYAMHWVRQAPGKGLEWVASITSSSAFIDYADSVKGRFTISRDNSKNTLYLQMNSLRAEDTAVYYCARERVDWFSYFDLWGQGTLVTVSS VL: EIVMTQSPATLSVSPGERATLSCRACPSVSNNLVWYQQKPGQAPRLLIYDASTRATGIPARFSGSGSGTEFTLTISSLQSEDFAVYYCQQYSHWPPTFGQGTKVEIK
12 | – | 20 | – | 13.2 | 0.0113 | – | – | MIAB133 (antibody, V domains shown, tested with human Fc; also called MIAB133-001) VH: EVQLLESGGGLVQPGGSLRLSCAASGFTFSSFWMHWVRQAPGKGLEWISYISGDSGYTNYADSVKGRFTISRDNSKNTLYLQMNSLRAEDTAVYYCARDRPYYYYMDVWGKGTTVTVSS VL: DIQMTQSPSSLSASVGDRVTITCRASQSVSRSLAWYQQKPGKAPKLLIYAASSLQSGVPSRFSGSGSGTDFTLTISSLQPEDFATYYCQQYKSYPVTFGQGTKVEIK
13 | – | 22.2 | – | 4.58 | 0.00897 | 405000 | – | MIAB145 (antibody, V domains shown, tested with human Fc; also called MIAB145-001) VH: EVQLLESGGGLVQPGGSLRLSCAASGFTFSDFWMHWVRQAPGKGLEWISYISGDSGYTNYADSVKGRFTISRDNSKNTLYLQMNSLRAEDTAVYYCARDRPYYYYMDVWGKGTTVTVSS VL: DIQMTQSPSSLSASVGDRVTITCRASQSISRSLAWYQQKPGKAPKLLIYAASSLQSGVPSRFSGSGSGTDFTLTISSLQPEDFATYYCQQYKSYPVTFGQGTKVEIK
14 | – | 203 | – | 67.3 | 0.082 | 404000 | – | MIAB137 (antibody, V domains shown, tested with human Fc) VH: EVQLLESGGGLVQPGGSLRLSCAASGFTFSDFWMHWVRQAPGKGLEWVSAISGSGGSTYYADSVKGRFTISRDNSKNTLYLQMNSLRAEDTAVYYCARDRPYYYYMDVWGKGTTVTVSS VL: DIQMTQSPSSLSASVGDRVTITCRASQSVSRSLAWYQQKPGKAPKLLIYAASSLQSGVPSRFSGSGSGTDFTLTISSLQPEDFATYYCQQYKSYPVTFGQGTKVEIK
15 | – | – | – | 75.4 | – | – | no binding (tested: 150 nM) | MIAB136 (antibody, V domains shown, tested with human Fc) VH: EVQLLESGGGLVQPGGSLRLSCAASGFTFSSYAMSWVRQAPGKGLEWISYISGDSGYTNYADSVKGRFTISRDNSKNTLYLQMNSLRAEDTAVYYCARDRPYYYYMDVWGKGTTVTVSS VL: DIQMTQSPSSLSASVGDRVTITCRASQSVSRSLAWYQQKPGKAPKLLIYAASSLQSGVPSRFSGSGSGTDFTLTISSLQPEDFATYYCQQYKSYPVTFGQGTKVEIK
